Series [1] has as its target T1, C1 esterase (UniProt P09871).
T1 sequence (looked up): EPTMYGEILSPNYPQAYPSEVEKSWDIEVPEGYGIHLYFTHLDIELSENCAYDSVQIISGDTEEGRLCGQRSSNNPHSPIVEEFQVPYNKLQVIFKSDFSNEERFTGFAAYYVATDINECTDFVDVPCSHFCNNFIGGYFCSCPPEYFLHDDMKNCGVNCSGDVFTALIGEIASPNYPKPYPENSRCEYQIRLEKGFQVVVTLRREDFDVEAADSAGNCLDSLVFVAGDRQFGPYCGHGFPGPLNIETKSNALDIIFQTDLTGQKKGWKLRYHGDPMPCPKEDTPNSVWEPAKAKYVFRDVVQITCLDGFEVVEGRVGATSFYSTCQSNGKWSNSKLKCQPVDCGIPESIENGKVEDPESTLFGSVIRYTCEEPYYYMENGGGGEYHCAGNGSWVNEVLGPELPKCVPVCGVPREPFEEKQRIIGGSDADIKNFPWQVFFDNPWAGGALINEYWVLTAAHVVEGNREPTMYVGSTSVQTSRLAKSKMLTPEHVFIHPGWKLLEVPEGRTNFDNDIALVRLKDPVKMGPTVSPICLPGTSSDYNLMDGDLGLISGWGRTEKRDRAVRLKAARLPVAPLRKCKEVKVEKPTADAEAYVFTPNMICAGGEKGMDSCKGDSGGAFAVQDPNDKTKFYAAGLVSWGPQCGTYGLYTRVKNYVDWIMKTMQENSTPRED
Briefly: cell-based or functional assay.

In series [2] the target is T2, kallikrein (Homo sapiens, UniProt P03952). Kind of series: cell-based or functional assay.
Target sequence in this assay (P03952 20-638 limits assumed): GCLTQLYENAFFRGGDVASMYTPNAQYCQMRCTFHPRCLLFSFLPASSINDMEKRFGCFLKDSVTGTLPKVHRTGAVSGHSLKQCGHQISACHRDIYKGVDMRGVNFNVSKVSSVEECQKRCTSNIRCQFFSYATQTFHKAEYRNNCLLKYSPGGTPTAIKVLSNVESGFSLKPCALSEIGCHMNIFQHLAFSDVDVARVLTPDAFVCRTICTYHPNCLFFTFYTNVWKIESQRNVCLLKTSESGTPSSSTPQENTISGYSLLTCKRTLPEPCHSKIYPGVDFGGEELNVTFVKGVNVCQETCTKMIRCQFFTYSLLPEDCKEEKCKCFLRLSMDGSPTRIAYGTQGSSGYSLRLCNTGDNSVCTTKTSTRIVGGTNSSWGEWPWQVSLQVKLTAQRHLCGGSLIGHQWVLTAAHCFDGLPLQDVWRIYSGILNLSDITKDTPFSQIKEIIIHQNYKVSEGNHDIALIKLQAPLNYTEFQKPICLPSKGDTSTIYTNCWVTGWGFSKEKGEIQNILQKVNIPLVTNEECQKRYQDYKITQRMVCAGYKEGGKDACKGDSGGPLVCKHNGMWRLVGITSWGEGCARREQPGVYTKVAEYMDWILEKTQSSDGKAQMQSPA
The target of series [3] is T3, C1 esterase (Homo sapiens, UniProt P09871).
T3 sequence (P09871 16-688): T1 sequence (looked up)
Kind of series: C1 INH activity assay: inhibition of C1 esterase activity. The series is classed as biochemical. The conditions noted are these: for Activity of C1 Esterase inhibition U/mg: 96-well plate, 37° C., kinetic substrate cleavage. The method, then: (§1) C1 INH activity was measured by the inhibition of C1 esterase and kallikrein activities. For the inhibition of C1 esterase activity, samples, standards, and controls were added to 96-well plate, and then C1-esterase was added. After 10 min incubation at 37° C., substrate of C1-eserasse was added. C1-esterase activity for cleavage of the substrate was monitored at 37° C. for 4 minutes kinetically. The higher C1 INH activity results in the lower C1 esterase activity or the lower cleavage rate of substrate. For the inhibition of kallikrein activity, EC50 was used to evaluate PEG-C1 INH activity. Lower EC50 value indicates higher activity of kallikrein inhibition.

Series [4] addresses T2, kallikrein. Kind of series: C1 INH activity assay: inhibition of kallikrein activity. The format is biochemical. Conditions: lower EC50 = higher activity. The method, then:
as §1
Target sequence in this assay (P03952 20-638): as the sequence (P03952 20-638 limits assumed) above

Series [5] in a line: Conjugate stability on SDS gel (heating, reduction, acid treatment). The format is physicochemical. The method, then:
The concentration of PEGylated C1 INH was determined by UV at 280 nm (extinction coefficient of C1 INH was 0.39 mL/mg·cm). Sample at 5 μg or 10 μg was loaded into the gel without sample reduction and heating for electrophoresis. In a separate experiment, the samples were heated at 70° C. for 7 minutes in the presence or absence of 75 mM β-mercaptoethanol in gel buffer. There was no evidence of conjugate breakdown under such conditions. […] The protein bands were visualized after simple blue stain. The density of the image was obtained on Molecular Dynamics. […] There were eight PEG (20 or 30k) strands attached per C1 INH as analyzed SEC-MALS.

As a reminder, the pEC50 is the EC50 on a negative log10 scale, so that one unit is a factor of ten. A low value points to a large EC50.

pEC50: −log10 of the molar value.

PEG-20k-Glycan-C1 INH (5 mg scale), sequence (P05155 23-500 limits assumed): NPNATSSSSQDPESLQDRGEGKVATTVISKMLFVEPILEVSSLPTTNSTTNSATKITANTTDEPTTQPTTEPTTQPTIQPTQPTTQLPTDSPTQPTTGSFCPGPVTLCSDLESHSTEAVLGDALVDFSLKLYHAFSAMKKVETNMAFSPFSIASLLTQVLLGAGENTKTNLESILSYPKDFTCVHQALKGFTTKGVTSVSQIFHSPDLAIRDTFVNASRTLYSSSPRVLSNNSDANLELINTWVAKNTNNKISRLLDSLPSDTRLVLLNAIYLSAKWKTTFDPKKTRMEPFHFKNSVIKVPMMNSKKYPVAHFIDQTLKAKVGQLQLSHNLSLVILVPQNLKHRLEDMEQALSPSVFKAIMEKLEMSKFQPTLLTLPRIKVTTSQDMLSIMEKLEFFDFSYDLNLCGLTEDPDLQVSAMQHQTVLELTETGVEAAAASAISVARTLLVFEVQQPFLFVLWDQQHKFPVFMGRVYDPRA
PEG-20k-Glycan-C1 INH (60 mg scale), sequence (P05155 23-500 limits assumed): as above
C1 Esterase Inhibitor (C1 INH), native, sequence (P05155 23-500 limits assumed): as above

Consider “C1 Esterase Inhibitor (C1 INH), native (from UniProt P05155 23-500)”, for which, in the series with C1 esterase [1], the Activity of C1 Esterase inhibition, % C1 INH activity amounted to 100% and the Activity of C1 Esterase inhibition, U/mg stood at 7 U/mg. Further, in the series with kallikrein [2], the Activity of Kallikrein inhibition, % C1 INH activity is 100% and the Activity of Kallikrein inhibition, EC50 is 200 nM.

Consider “C1 INH: C1 Esterase Inhibitor obtained from Athens Research & Technology, MW 73000 Da by MALDI; unmodified reference protein”, for which the “Activity of C1 Esterase inhibition U/mg” value with C1 esterase [3] turned out to be 7.0 U/mg. In the series with kallikrein [4], this substance had a negative-log EC50 (pEC50) of 6.70.

Turning to “PEG-20k-Glycan-C1 INH (5 mg scale) (from UniProt P05155 23-500)”, in the series with C1 esterase [1], the % C1 INH activity on C1 esterase inhibition (small scale) was determined as 97%; the Activity of C1 Esterase inhibition, % C1 INH activity is 94%; the Activity of C1 Esterase inhibition, U/mg was 6.6 U/mg.

Take “PEG-20k-Glycan-C1 INH (5 mg scale): Same PEG-20k-hydrazide glycan conjugate of C1 INH prepared at 5 mg scale; PEG number pending”: the “Activity of C1 Esterase inhibition U/mg” value in the series with C1 esterase [3] turned out to be 6.6 U/mg.

In the series with C1 esterase [1], “PEG-20k-Glycan-C1 INH (60 mg scale) (from UniProt P05155 23-500)” showed an Activity of C1 Esterase inhibition, % C1 INH activity of 73% and an Activity of C1 Esterase inhibition, U/mg of 5.1 U/mg. Besides, in the series with kallikrein [2], the Activity of Kallikrein inhibition, % C1 INH activity came to 67% and the Activity of Kallikrein inhibition, EC50 is 300 nM.

For the substance “PEG-20k-Glycan-C1 INH (60 mg scale): C1 INH oxidized with periodate at glycan and conjugated with PEG-hydrazide 20k; eight PEG strands per C1 INH”, in the series with C1 esterase [3], the “Activity of C1 Esterase inhibition U/mg” value is 5.1 U/mg. In addition, the “% C1 INH activity on C1 esterase inhibition, small scale” value in the series with C1 esterase [3] (small scale batch, relative to native C1 INH) is 97%. In addition, in the series with kallikrein [4], the pEC50 was 6.52. Also, in series [5] (0.1% TFA or sodium acetate, pH 4.7), the “Stability of conjugate under acidic conditions” value was “releasable”. Moreover, in series [5] (70° C. for 7 minutes, with or without 75 mM β-mercaptoethanol, SDS gel), the “Stability of conjugate to heating and reducing at neutral pH” value is listed as “stable”.
